Measurements published in publication PMC4355278 (Journal of molecular biology, 2015).

Columns and labels:
Pex1/Pex6 complex = Pex1/Pex6 complex (Saccharomyces cerevisiae, UniProt P24004); test: ATPase assay
SEC = biological target: the molecule itself; test: SEC

B1: Pex15 cytosolic domain (protein)
chain: MAASEIMNNLPMHSLDSSLRDLLNDDLFIESDESTKSVNDQRSEVFQECVNLFIKRDIKDCLEKMSEVGFIDITVFKSNPMILDLFVSACDIMPSFTKLGLTLQSEILNIFTLDTPQCIETRKIILGDLSKLLVINKFFRCCIKVIQFNLTDHTEQEEKTLELESIMSDFIFVYITKMRTTIDVVGLQELIEIFIFQVKVKLHHKKPSPNMYWALCKTLPKLSPTLKGLYLSKDVSIEDAILNSIDNKIQKDKAKSKGKQRGVKQKIHHFHEPMLHNSSEEQVKVEDAFNQRTSTDSRLQSTGTAPRKKNNDITVLAGSFWAVLKHHFTRS
Pex1/Pex6 complex
  Kd: 185 nM

B2: Pex1-FLAG (recombinant) (natural protein, S. cerevisiae, UniProt P24004 1-1043, looked up)
chain: MTTTKRLKFENLRIQFSNAIVGNFLRLPHSIINVLESTNYAIQEFGIAVHSHNSDIPIVHLGWDGHDSGSSENVVLINPVLATVYDLNQKSPLVDLYIQRYDHTHLATEVYVTPETSDDWEIIDANAMRFQNGEILHQTRIVTPGETLICYLEGIVTKFKIDRVEPSMKSARITDGSLVVVAPKVNKTRLVKAEYGHSNKTILKNGAIQLLKKVILRSTVCKMDFPKDNLFVVYISDGAQLPSQKGYASIVKCSLRQSKKSDSDNKSVGIPSKKIGVFIKCDSQIPENHIALSSHLWDAFFTHPMNGAKIKLEFLQMNQANIISGRNATVNIKYFGKDVPTKSGDQYSKLLGGSLLTNNLILPTEQIIIEIKKGESEQQLCNLNEISNESVQWKVTQMGKEEVKDIIERHLPKHYHVKETGEVSRTSKDEDDFITVNSIKKEMVNYLTSPIIATPAIILDGKQGIGKTRLLKELINEVEKDHHIFVKYADCETLHETSNLDKTQKLIMEWCSFCYWYGPSLIVLDNVEALFGKPQANDGDPSNNGQWDNASKLLNFFINQVTKIFNKDNKRIRVLFSGKQKTQINPLLFDKHFVSETWSLRAPDKHARAKLLEYFFSKNQIMKLNRDLQFSDLSLETEGFSPLDLEIFTEKIFYDLQLERDCDNVVTRELFSKSLSAFTPSALRGVKLTKETNIKWGDIGALANAKDVLLETLEWPTKYEPIFVNCPLRLRSGILLYGYPGCGKTLLASAVAQQCGLNFISVKGPEILNKFIGASEQNIRELFERAQSVKPCILFFDEFDSIAPKRGHDSTGVTDRVVNQLLTQMDGAEGLDGVYILAATSRPDLIDSALLRPGRLDKSVICNIPTESERLDILQAIVNSKDKDTGQKKFALEKNADLKLIAEKTAGFSGADLQGLCYNAYLKSVHRWLSAADQSEVVPGNDNIEYFSINEHGRREENRLRLKTLLQQDVVHETKTSTSAASELTAVVTINDLLEACQETKPSISTSELVKLRGIYDRFQKDRNGEMPNGENSIDIGSRLSLM
SEC
  binding result: binds
